The results in this text go back to publication PMC5467235, “Variation in auxin sensing guides AUX/IAA transcriptional repressor ubiquitylation and destruction” (Nature Communications, 2017).

The labels stand for the following.
B1: GST-IAA6 [Arabidopsis thaliana] / ASK1-TIR1 protein complex [Arabidopsis thaliana] (parent)
chain 1: MAKEGLALEITELRLGLPGDNYSEISVCGSSKKKKRVLSDMMTSSALDTENENSVVSSVEDESLPVVKSQAVGWPPVCSYRRKKNNEEASKAIGYVKVSMDGVPYMRKIDLGSSNSYINLVTVLENLFGCLGIGVAKEGKKCEYIIIYEDKDRDWMLVGDVPWQMFKESCKRLRIVKRSDATGFGLQQD
chain 2: MQKRIALSFPEEVLEHVFSFIQLDKDRNSVSLVCKSWYEIERWCRRKVFIGNCYAVSPATVIRRFPKVRSVELKGKPHFADFNLVPDGWGGYVYPWIEAMSSSYTWLEEIRLKRMVVTDDCLELIAKSFKNFKVLVLSSCEGFSTDGLAAIAATCRNLKELDLRESDVDDVSGHWLSHFPDTYTSLVSLNISCLASEVSFSALERLVTRCPNLKSLKLNRAVPLEKLATLLQRAPQLEELGTGGYTAEVRPDVYSGLSVALSGCKELRCLSGFWDAVPAYLPAVYSVCSRLTTLNLSYATVQSYDLVKLLCQCPKLQRLWVLDYIEDAGLEVLASTCKDLRELRVFPSEPFVMEPNVALTEQGLVSVSMGCPKLESVLYFCRQMTNAALITIARNRPNMTRFRLCIIEPKAPDYLTLEPLDIGFGAIVEHCKDLRRLSLSGLLTDKVFEYIGTYAKKMEMLSVAFAGDSDLGMHHVLSGCDSLRKLEIRDCPFGDKALLANASKLETMRSLWMSSCSVSFGACKLLGQKMPKLNVEVIDERGAPDSRPESCPVERVFIYRTVAGPRFDMPGFVWNMDQDSTMRFSRQIITTNGL
chain 3: MSAKKIVLKSSDGESFEVEEAVALESQTIAHMVEDDCVDNGVPLPNVTSKILAKVIEYCKRHVEAAASKAEAVEGAATSDDDLKAWDADFMKIDQATLFELILAANYLNIKNLLDLTCQTVADMIKGKTPEEIRTTFNIKNDFTPEEEEEVRRENQWAFE

The variants in the assay derive from B1. Kind of assay: one-point saturation binding assay with [3H]IAA (radioligand binding). The note with it: 200 nM [3H]IAA, read off a plot.
Regarding chain 1 MAKEGLALEITELRLGLPGDNYSEISVCGSSKKKKRVLSDMMTSSALDTENENSVVSSVEDESLPVVKSQAVGWPPVRSYRRKKNNEEASKAIGYVKVSMDGVPYMRKIDLGSSNSYINLVTVLENLFGCLGIGVAKEGKKCEYIIIYEDKDRDWMLVGDVPWQMFKESCKRLRIVKRSDATGFGLQQD [chain 1 C78R], the response worked out at 3100 c.p.m.
